Consider one molecule from US10272135B2, “Apolipoprotein O and fragments thereof for inducing apoptosis in a cancerous cell” (INSERM (INSTITUT NATIONAL DE LA SANTÉ ET DE LA RECHERCHE …, priority 2014, dated 2019).

For one series, the system named is cytochrome C oxidase. The series is described as follows: Cytochrome C oxidase activity in cardiac myoblasts. It counts as cell-based. As to conditions: ApoO cells vs control. From the text: After ethical committee approval, all patients in this study gave written consent for sample collection and molecular analysis prior to inclusion. Patients were carefully selected by physicians from the Department of Cardiology, Toulouse University Hospital, prior to coronary by-pass surgery. Bioinformatics. Microarray expression data from human heart samples were downloaded from the GEO repository (GSE1145). This series consisted of 107 myocardial samples collected from patients undergoing cardiac transplantation whose failure arises from different etiologies (e.g. idiopathic dilated cardiomyopathy, ischemic cardiomyopathy, valvular cardiomyopathy, and hypertrophic cardiomyopathy) and from “normal” organ donors whose hearts cannot be used for transplants. Arrays were intensity normalized and hierarchical clustering (average group linkage, Pearson correlation, threshold r=0.8) was applied to identify groups of co-expressed genes. […] All ApoO sequences within the expression vectors were verified by DNA double strand sequencing using ABI PRISM®BigDye™ Terminator version 3.1 Ready reaction cycle sequencing kit (Life Technologies SAS, Villebon sur Yvette) and loaded on an ABI 3130XL DNA sequencing instrument (Life Technologies SAS, Villebon sur Yvette). […]

Another series relates to U87 cells. Put plainly: Caspase-3 activity in U87 glioblastoma transfectants. It counts as cell-based, human. Particulars: U87 pTT-ApoO vs control pTT, 100 μM palmitate overnight (FIG. 13). The procedure:
U87 were obtained from the European Collection of Cell Cultures (Salisbury, England). p y, g) U87 cells were cultured in Dulbecco's modified Eagle medium (Life Technologies SAS, Villebon sur Yvette) adjusted to contain 1.5 g/liter sodium bicarbonate and supplemented with antibiotic-antimycotic solution (Life Technologies SAS, Villebon sur Yvette) and 10% fetal bovine serum (FBS, AbCys s.a., Paris). Cells were plated on 10-cm diameter tissue culture dish and grown in a 5% CO2 incubator at 37° C. with saturating humidity with medium changes every 2 days. U87 glioblastomas were stably transfected by electroporation and pools of transfectants were selected as previously described (Smih et al 2002). Western Blot Analysis Cultured cells were resuspended in RIPA buffer (0.15 M sodium chloride, 1% NP-40, 0.5% sodium deoxycholate, 0.1% SDS, 50 mM Tris, pH 8) in the presence of a mix protease inhibitors. The lysate was sonicated 6 s and centrifuged at 6,500 g for 10 min. […] Protein immune-band densitometry was quantified with the ImageJ software. […] Caspase-3 activities were measured using the Caspase-3 Substrate IV Fluorogenic substate (VWR, Strasbourg) and a Victor™ X5 2030 multilabel reader (Perkin Elmer, Courtaboeuf). […]
The inventors measured and compared the Caspase-3 activity in • control U87 cells (pTT); and • U87 transfectants cells overexpressing ApoO (pTT-ApoO).

The subject of the next series is glioblastoma cells. The series is described as follows: Transmission electron microscopy of glioblastoma cells. It counts as cell-based. How it is done:
Transmission electron microscopy of control (left) and ApoO expressing (right) cells incubated overnight with 100 μM of palmitate (n=6). Black arrows indicate lipid droplets.
Transmission electron microscopy of control (left) and ApoO expressing (right) cells. Black arrows indicate blebs (n=3).

B1: ApoO: 198-amino acid apolipoprotein, SEQ ID NO: 1; tested by overexpression from expression vectors or transgene (protein, listed as Homo sapiens)
chain: MFKVIQRSVGPASLSLLTFKVYAAPKKDSPPKNSVKVDELSLYSVPEGQSKYVEEARSQLEESISQLRHYCEPYTTWCQETYSQTKPKMQSLVQWGLDSYDYLQNAPPGFFPRLGVIGFAGLIGLLLARGSKIKKLVYPPGFMGLAASLYYPQQAIVFAQVSGERLYDWGLRGYIVIEDLWKENFQKPGNVKNSPGTK
In the case of B1, the “cytochrome C oxidase activity” value with cytochrome C oxidase was “increase”. Besides, the Caspase-3 activity entry with U87 cells is reported as “significant increase”. In addition, the “apoptosis (membrane blebbing)” value in the series with glioblastoma cells (cells which express ApoO vs cells which do not (FIG. 16)) was “apoptosis occurs”. In addition, the mitochondrial morphology entry in the series with glioblastoma cells (expression or overexpression of ApoO in glioblastoma cells) was “development of abnormal mitochondria”. The lipid accumulation entry in the series on glioblastoma cells (glioblastoma cells expressing ApoO, in the presence of palmitate (FIG. 15)) was “lipid accumulate”.
